Biological target: FLAG-Nrxn1β(−SS4) (UniProt Q63373)
Test: cell surface binding with Scatchard analysis

In the case of “SorCS1-ecto-His (from UniProt Q9JLC4 34-1098) (domain or fragment)”, the Kd is reported as 2.22 nM.

Reference: PMC4692362
